Laboratory results from doi:10.1101/2022.01.27.478073 (bioRxiv, 2022).

Molecular target: T1, His-AtNRT1.4 (Arabidopsis, UniProt Q9SZY4 1-577)
T1 sequence (looked up): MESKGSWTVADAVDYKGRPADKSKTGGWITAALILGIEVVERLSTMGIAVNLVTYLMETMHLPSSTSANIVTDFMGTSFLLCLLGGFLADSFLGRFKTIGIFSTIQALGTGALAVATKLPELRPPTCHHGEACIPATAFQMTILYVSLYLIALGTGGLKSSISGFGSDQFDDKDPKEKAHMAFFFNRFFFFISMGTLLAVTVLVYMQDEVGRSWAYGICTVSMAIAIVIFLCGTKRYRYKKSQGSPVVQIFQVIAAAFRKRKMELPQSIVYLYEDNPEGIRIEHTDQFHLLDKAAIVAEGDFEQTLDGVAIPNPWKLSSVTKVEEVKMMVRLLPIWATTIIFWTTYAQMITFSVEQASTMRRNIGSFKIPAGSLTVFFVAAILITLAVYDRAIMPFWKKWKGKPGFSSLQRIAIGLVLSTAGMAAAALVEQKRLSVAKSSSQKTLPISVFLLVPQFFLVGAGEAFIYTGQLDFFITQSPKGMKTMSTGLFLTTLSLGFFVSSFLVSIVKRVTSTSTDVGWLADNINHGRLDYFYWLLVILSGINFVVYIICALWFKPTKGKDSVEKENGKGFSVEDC
Assay: pull-down

- binding result: binds
B1: GST-AtGPA1 (natural protein, Arabidopsis, UniProt P18064 1-383, looked up)
chain: MGLLCSRSRHHTEDTDENTQAAEIERRIEQEAKAEKHIRKLLLLGAGESGKSTIFKQIKLLFQTGFDEGELKSYVPVIHANVYQTIKLLHDGTKEFAQNETDSAKYMLSSESIAIGEKLSEIGGRLDYPRLTKDIAEGIETLWKDPAIQETCARGNELQVPDCTKYLMENLKRLSDINYIPTKEDVLYARVRTTGVVEIQFSPVGENKKSGEVYRLFDVGGQRNERRKWIHLFEGVTAVIFCAAISEYDQTLFEDEQKNRMMETKELFDWVLKQPCFEKTSFMLFLNKFDIFEKKVLDVPLNVCEWFRDYQPVSSGKQEIEHAYEFVKKKFEELYYQNTAPDRVDRVFKIYRTTALDQKLVKKTFKLVDETLRRRNLLEAGLL
